Laboratory results published in US20100028924A1 (RAPPAPORT FAMILY INSTITUTE RESEARCH IN THE MEDICAL SCIENCES, published 2010).
Where a chain is given by its changes, count along the chain named.

B1: wt rePON1-192K (enzyme)
chain: MAKLTALTLLGLGLALFDGQKSSFQTRFNVHREVTPVELPNCNLVKGVDNGSEDLEILPNGLAFISSGLKYPGIMSFDPDKSGKILLMDLNEEDPVVLELGITGNTLDISSFNPHGISTFTDEDNTVYLLVVNHPDSSSTVEVFKFQEEEKSLLHLKTIRHKLLPSVNDIVAVGPEHFYATNDHYFADPYLKSWEMHLGLAWSFVTYYSPNDVRVVAEGFDFANGINISPDGKYVYIAELLAHKIHVYEKHANWTLTPLKSLDFDTLVDNISVDPVTGDLWVGCHPNGMRIFYYDPKNPPGSEVLRIQDILSEEPKVTVVYAENGTVLQGSTVAAVYKGKLLIGTVFHKALYCEL
B2: rePON1-192Q (enzyme)
chain: B1 chain with K192Q
B3: rePON1-192R (enzyme)
chain: B1 chain with K192R

Molecular target: rHDL-apoA-I (reconstituted discoidal HDL particles carrying apolipoprotein A-I)
Assay: cell-based or functional assay

increase of cholesterol efflux from macrophages relative to rHDL-apoA-I alone	Binder
93%	B1
30%	B2
67%	B3
